Legend:
Type in all cases: biochemical, Quillaja saponaria
[1] = Experiment 6-1: screening of rhamnosidases for derhamnosylation of saponins in treated bark extract (2%), QS-17 2296 to QS-18 2150 (PAR %); settings: TBE 2%, pH 7.5, 30 degC, 18 h; TIC peak area ratio percent of rhamnosylated starting saponin to derhamnosylated product, LCMS/MS; negative controls 4.876, 5.225
[2] = Experiment 6-1: screening of rhamnosidases for derhamnosylation of saponins in treated bark extract (2%), desglucosyl-QS-17 2134 to QS-21 1988 (PAR %); settings: TBE 2%, pH 7.5, 30 degC, 18 h; TIC peak area ratio percent, LCMS/MS; negative controls 2.719, 2.158
[3] = Experiment 6-1: screening of rhamnosidases for derhamnosylation of saponins in treated bark extract (2%), QS-17 2310 to QS-18 2164 (PAR %); settings: TBE 2%, pH 7.5, 30 degC, 18 h; TIC peak area ratio percent, LCMS/MS; negative controls 3.061, 2.429
[4] = Experiment 6-1: specificity of rhamnosidases towards other rhamnose residues (C3 saccharide rhamnose, C28 saccharide rhamnose); settings: TBE 2%, pH 7.5, 30 degC, 18 h; LCMS/MS; negative controls 0.18, 0.17

Molecule | QS-17 (PAR %) [1] [%] | Peak75 (PAR %) [2] [%] | Peak57 (PAR %) [3] [%] | ratio PP/QS-21 [4]
1069 (protein, listed as Deltaproteobacteria bacterium) MSLHDRSWVWNPDWNESRKETSAGGFVHFRREIDLEKRPSRPIFISITADTRYKLYINSKFVHHGPVKGDSQVWYYDELDIQPYMKAGKNTIAVRVLRLYHGTRFGTSFPRMPLGGLRIQHIRDSNDPPIIFSIETNGSWKTAVDRSSFLPIIEDDMFLHIFEAVDRRNDCKLQWTSAKPHKIFNAFGLVSPWKLSPRQIPFANFRPAIFSTIHNIRSTSNDAEVVDWQACLLAKSSNRTPVRLAAGTIHHVELEASHHLTAFMSFLFERPENPGAEIKITYSECYEDVPDNPQFRQKADRRDTSKKLLGPYDTFILGGRIYEQEDPSSAYHESGEDMVIFAPFHFRTFRFIAIDIAVNSDSDLIFHGVQITRTKYPLDVLAQFSPGGRDVTLPVQKMWETSILTLENCMHDCYEDCPFYEQLQYAMDTRSSALFTYYLSGDDRLARQAITQTRNSFQPSIGLTASRAPCEHLQIIPNFSLFWICMVADHYLHYGDMAFTSQFLPVCDAVLDSFRRRIDPDLGLVRCYDTDDFWDFVDWTEAWKPRGIPPAGKRTGYQTFSSSLYAYTLNLIAPAVEEYGRKGVAEEYRQSAAEVAASIWQHCFDGQYFTDGLAGSALNSEYSQHNQVWAILSGAVIGDEARQLLSKTLSRHDLTTPSIAMSFYTLQAVSLVGGDLYDLHFNDFWAPWIEQLSNNVTTWVEDNVSQRSECHAWGSAPIYEFMAEVVGLRPLEPGWRSISFKPRLALFETMDSKVPIPIRGSSGMAVAHVRWGRKGDDIAGVTIELKKGAENLRIPITLSHESGEDEVVISPFARDVRIQ | 4.786 | 2.213 | 2.596 | 0.17
1080 (protein, listed as Eisenbergiella massiliensis) MANWIWYPGDFEIYHGMCQNFDREERGFFWPAYWHIADCRHHVVFHASCRLEKETAFRVTAKGIGHVLVKWEEKAPSWFPEGQPFYQEKKYTIGEWISCPAKEIGIDVVIGNRTGLPCIYVEGEVIRSGKNWTVTDFAAPEVPVGWNDMYVRAQQDPQIFEYTQELCRPVSTERVNGGVLYDFGRELTADTLIKINGEERPDQVTLCYGESRTEALDTQLCYLKQVLEIPGKKDSVPAGCASGPEREADCGASPFGRWESGQRYHTKLRAFRYIFVPEGENASLVTVEALYKYVDFPKRSSFSCSDGLINRIWEVADTTFRLASGIFFLDGVKRDRWIWSGDAYQSYFINQYLFFDKDICKRTILALRGNDPVTEHINTIVDYSMYWIISLENYYNMSGDLDFIRMVYPRMESLLRYCMEQTDGQGFIYGREGDWIYIDWAELDKEGILCAEQQLLARSYEAVASVRRLLGLDAEEFDVRKEALLKNIRQFFWDEEKGAFIDSYQSGRRNVTRHANIFAVLFGYADEAETESILHKVLLNEEVAAITTPYFKFYELEALAKLGRFEVVMDTLKSYWGGMLERGADTFWEEYKPEQPEEEQYGMYGDKYGKSLCHAWGASPIYLLGRYCMGVRPTGTAYETFAVEPQLELFDSFSCSFPVNEGTVWMDWKDGVLDVYTDKDGGVLKAAGKEYTLERGKHVVVKGR | 4.792 | 2.434 | 2.882 | 0.17
996 (protein, listed as Opitutus terrae) MHRRFLAAILLGAPALLESAAAAPETPAAPPPAAAQPLAWPEVHRETKPWSRWWWFGNIADEKSVTAQLEACAAAGLGGLEITPIYGVRGYEDRFVPFLSPRWMELLRHTLVESRRLGLGIDLATGTGWPFGGPWLQPEDVAHTLAHRVYEIKPGERLGEPVRLTATGLVRVAGPRPVKLEELREPITANANLQELALDQVRFPKPMRLVSLMAFPLALAGVAPTPLDLTSRVRADGSLDWTAPADAGTWTLYALFAGPHGKMVERAAPGGEGFALDHFSSTALRAYLARFDAAFAEGHLLSDLPSAAGADSAPRLRAFFNDSYEVDDADGEANWTPRFLEEFQKRRGYDLRAHLPELLATTENDFSARVRSDYRETISDLLLDEFTNPWREWAHQHGALIRNQAHNSPANILDLYAASDIPEQEGNGFLAMKLASSAAHVSGKPLASAETATWLNEHFLTTLAELKQNTDEFLLAGINHVCYHGTALSPLDAAWPGFNFYASVELNPLNPFWRDFTALNAYVARAQSFLQSGTPDEDVLLYYNIHDRWAERGNGRMPHFGHGGRDPSGSLAATAAALHEAGVGFDYVSDRQLQKITPDRAIVVPQTTFMPEATLARLVELAAQGATILFVDHLPRSAPGLAGLNASGRFEQLLQKIQTQLAPSDVLSAAKLDGGQFLLGPGIRELLDRCPGIARESLRPFGLEFVRRRTDAGALYFLVNRSNQPIDRWIPLQSPAAAAALFDPMTGNAGLAAIHSSGPTGSASIPPAHSDGARASRAPTEIYLQLAPGESCVVQLHATPVAGPAWHYWQRAGEPHLLTGDWSVTFTAGGPALPAAAQLHALTSWTDFAGEAGRAFSGTAVYTRRFARPSGDAPAWELDLGTVGDSARVTLNGRELGVLIQPPWRVVIPANEWRDENALEIDVTNLAANRIADLDRRGASWKIFYNANFPARFRENVGPDRQFTAARWLPRNSGLLGPVKLTPLQKSDPTL | 4.778 | 2.221 | 3.190 | 0.16
1056 (protein, listed as Solitalea canadensis) MKPIITNLMLLLFAGAASAQSSKELYRSKEFSIYTDKVVQGKYIAKVLSPTEMTSDYQSPVNLYKSPKLTFKFSINGKDNEMISGQDHSINVMAKDGKFISPLITFGKHYVDKKNVPDNTYLEPNIDFTIRLDMRNVLNAFKTDGFYKGADGKKVYKEDFKGVYVAGSTLPLIWDFDNLVHHPDLQLKDDDGDGIYEVKVVLNEFKEQPSVSSNWKLKRNISAFPQYQASSPIENAMYNLSLDEMENAIEADSTLRTGKEWAGVWTRDVSYSIILSMAILQPKVAEYSLLRKVKNDRIIQDTGTGGAYPVSTDRMIWAVAAWEIYKTTGDKNWLSKAYSIIKNSIEDDWKNAYDPKTGLVKGESSFLDWREQEYPKWMQPADIYESECLGTNVVHFQANKVFAEMAILLGQKTVSDEHNAIAQTIKTGINNYLWIANKGYYGQYLYGRNYKILSPRSEALGEALAVIFGVADNERQKTIVRNTPVNSFGIPCFYPQLPNTPPYHNNAVWPFVQTYWALAAANAGNEQSVMESIAAIYRPAALFLTNKENFVADNGDFAGTQINSSNMLWSLSGNIALVYKVLFGMQFGADRLTFKPTVPQALAGTRMLTNFKYRNALLTISMQGFGTQIKSITMDGKPLVNAIVPASLTGKHTIKMVLTNMMESSSTTILPAYTSLTIPQVELKNDEIVWKKVPNAVSYVFIKNGDRIDNGIDTACIINNNSFAEYQVIAVDKNGVESFGSEPLQIIPEQTVKTIEIENLTSKADLPYKGYSGDGFVEISTQKNTILSFETTITEAGTYAINFKYANGNGPINTENKCAFRTLKLNNKQVGTVVLPQRGTNEWSEWGMSNSVIVELKAGTNKFDLTYETNNANMNGTVNQAMLDYVRIVKVE | 4.774 | 2.416 | 2.796 | 0.17
